The values that follow come from PMC5993198.

This series has as its target rBac-RelA (human? (hRelA; expressed in Sf9), UniProt Q04206 1-551). Put plainly: fluorescence anisotropy.

Sequence of rBac-RelA (Q04206 whole entry): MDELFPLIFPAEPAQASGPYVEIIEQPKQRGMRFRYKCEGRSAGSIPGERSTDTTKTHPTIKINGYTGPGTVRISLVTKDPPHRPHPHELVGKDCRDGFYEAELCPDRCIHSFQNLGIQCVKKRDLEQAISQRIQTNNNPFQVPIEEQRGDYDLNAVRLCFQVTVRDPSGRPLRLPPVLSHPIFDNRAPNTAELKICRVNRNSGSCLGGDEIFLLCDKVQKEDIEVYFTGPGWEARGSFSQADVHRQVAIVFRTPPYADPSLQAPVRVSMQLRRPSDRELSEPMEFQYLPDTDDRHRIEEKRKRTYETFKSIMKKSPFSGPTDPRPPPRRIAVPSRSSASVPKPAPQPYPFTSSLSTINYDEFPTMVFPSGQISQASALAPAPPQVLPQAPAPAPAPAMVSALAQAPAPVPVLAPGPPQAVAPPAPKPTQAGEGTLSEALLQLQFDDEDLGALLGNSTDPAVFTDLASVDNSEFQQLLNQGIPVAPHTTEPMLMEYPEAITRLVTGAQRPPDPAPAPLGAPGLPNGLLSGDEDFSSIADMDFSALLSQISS

With ATCGTGGGAAAGTTTCTGGATATTCCCTTGGA (ssDNA) [fluorescein ssDNA negative control containing κB site], the binding result was “no binding”.
